Consider 30 sequences from the nanobody polyreactivity screen of Harvey et al. (2022).

A short description of this series: yeast display, Sf9 membrane polyspecificity reagent, FACS + sequencing; frameworks hold sequencing errors. An outline of the steps: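 Sorting gates, low and high (top ~1%), were placed on anti-HA fluorescence to track expression and on streptavidin fluorescence to track reagent binding. A clone's polyreactivity label is taken from the gate it came out of. The reagent was 10% biotinylated, detergent-solubilized Sf9 membrane, applied for 1 hour at 4 °C to galactose-induced yeast display cells.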
On to “QVQLVESGGGLVQAGGSLRLSCAASGSTFSANAMGWYRQAPGKERELVAGISRSGGRTYYADSVKGRFTISRDNEMNTVYLQMNSLKPEDTAVYYCNARRRGAGGYDYWGQGTQVTVSS”, for which the “polyreactivity (PSR sort gate)” value is given as “high polyreactivity”.

For “QVQLVESGGGLVQAGGSLRLSCAASGSTFTENAMGWYRQAPGKERELVATISTSDGSTHYADSVKGRFTISRDNAKNTVYLQMNSLKPEDTAVYYCAARPDYFLWHGYYTRRHYYWGQGTQVTVSS”, the “polyreactivity (PSR sort gate)” value is recorded as “low polyreactivity”.

“QVQLVESGGGLVQAGGSLRLSCAASGSIFGGNAMGWYRQAPGKERELVAAITDGGNTNYADSVKGRFTISRDNAKNTVYLQINSLKPEDTAVYYCAARIPGTYGGRYGYDYWGQGTQVTVSS”: the “polyreactivity (PSR sort gate)” value was “low polyreactivity”.

On to “QVQLVESGGGLVQAGGSLRLSCAASGRTFNKYAMGWYRQAPGKERELVAAINTSGGSTYYADSVKGRFTISRDNAKNTVYLQMNSLKPEDTAVYYCAAQSRSVYGRSYGYWGQGTQVTVSS”, for which the “polyreactivity (PSR sort gate)” value is reported as “high polyreactivity”.

As for “QVQLVESGAGLVQAGGSLRLSCAASGSTFHYYAMGLYRQAPGKERELVATITWRGGFTYYADSVKGRFTISRDNAKNTVYLQMNSLKPEDTAGYYCTDYYVRRYRDPRLYYWGQGTQVTVSS”, the “polyreactivity (PSR sort gate)” value is “high polyreactivity”.

On to “QVQLVESGGGLVQAGGSLRLSCAASGFIFRHYAMGWYRQSPGKAREMVAVINWSGSSTYYADSVKGRFTISRDNEKNTVFLQMNSLKPEDTAVYYCAVRSLRVDKYGYWGLGTQVTVSS”, for which the “polyreactivity (PSR sort gate)” value is “high polyreactivity”.

Consider “QVQLVESGGGLVQAGGSLRLSCAASGTTFFINDLGWYRQAPGKERELVAAISWSGDSTYYPDSVKGRFTISRDNAKNTVYLQMKSLKPEDTAVYYCAADWGFVQPGWSYNYWGQGTQVTVSS”, for which the “polyreactivity (PSR sort gate)” value is reported as “high polyreactivity”.

In the case of “QVQLVESGGGLVQAGGSLRLSCAASGRTFFSYAMGWYRQAPGKERELVAAISWSGGTTYYADSVKGRFTISRDNAKNTVYLQMNSLKPEDTAVYYCAAYVYQEGYRYYYWGQGTQVTVSS”, the “polyreactivity (PSR sort gate)” value is given as “high polyreactivity”.

As for “QVQLVESGGGLVQAGGSLRLSCAASGGIFTYYAMGWYRQAPGKERELVAAITWSGGSTYYADSVKGRFTISRDTAKNTVYLQMNSLKPEDTAVYYCNAVVLHVTTDNSTFTTDDYWGQGTQLTVSS”, the “polyreactivity (PSR sort gate)” value was “low polyreactivity”.

In the case of “QVQLQESVGLVQAGGLRLSCAASGSVSYQEAMGWYRQAPAKERELVATISFGANTNYADSVKGRFTISRDNAKNTVYLQMNCLKPEDTAVYYCAAESLFDDYYGYWGQGTQVTVSS”, the “polyreactivity (PSR sort gate)” value is reported as “low polyreactivity”.

For “QVQLVESGGGLVQAGGSLRLSCAASGIIFRANAMGWYRQAPGKERELVAAISSSGGSTFYADSVKGRFTISRDNAKNTVYLQMNSLKPEDTAVYFCAAGRSKFAWSEYEYWGQGTQVSVSS”, the “polyreactivity (PSR sort gate)” value is “low polyreactivity”.

As to “QVQLVESGGGLVQAGGSLRLSCAASGNIFGDNAMGWYRQAPGKERELVAAITRIDGNTYYADSVKGRFTISRDNAKNTVYLQMNSLKPEDTAVYYCATDEPVGRYQHNYYWGQGSQVTVSS”, the “polyreactivity (PSR sort gate)” value was “low polyreactivity”.

With “QVQLVESGGGLVQAGGSLRLSCAASGRIFLKYAMGWYRQAPGKERELVAAISSSGGSTYYADSVKGRFTISRDNAMNTVYLQMNSLKPEDTAVYYCNALYKRGSSYFIGDGYWGQGTQVTVSS”, the “polyreactivity (PSR sort gate)” value is “high polyreactivity”.

“QVQLVESGGGLVQAGGSLRLSCAASGITFRANAMGWYRQAPGKERELVAAISARGGSTYYADSVKGRFTISRDNAKNTVYLQMNSLKPEDTAVYYCNAVAYRSRSEYDYWGQGTQVTVSS”: the “polyreactivity (PSR sort gate)” value is recorded as “high polyreactivity”.

Regarding “HVQIVESGRGLVPAGGSLRLSCAASGFIFIRYSMGWSRQAPGKERELVAVISSGGGSTDYADSVKGRFTISRDYAKNTVFLQMISLKPEDTAVYYCAADFLPTYDPYYFWGQGTQVSVSS”, the “polyreactivity (PSR sort gate)” value is given as “low polyreactivity”.

Take “QVQLVESGGGLVQAGGSLRLSCAASGRIFPYYAMGWYRQAPGKERELVAAINRGGSTNYADSVKGRFTISRDNAKNTVYLQMNSLKPEDTAVYYCAALSRTHGVSYDYWGQGTQVTVSS”: the “polyreactivity (PSR sort gate)” value is given as “high polyreactivity”.

Consider “QVQLQESGGGLVQAGGSMRLSCAASGSISELRPMGWYRQAPGKERELVAGISTGGSTNYADSVKGRFTISRDNAKNTVYLQMNSLKPEDTAVYYCAAASYGEGTYDYWGQGTQVTVRS”, for which the “polyreactivity (PSR sort gate)” value is reported as “high polyreactivity”.

Take “QVQLVESGGGLVQAGGSLRLSCAASGRIFYNYVMGWYRQAPGKERELVAAISSSGGSTYYADSVKGRFTISRDNAKNSVYLQMNSLKPEDTAVYYCSAETYQLTWVLYYYWGQGTQVTVSS”: the “polyreactivity (PSR sort gate)” value is given as “high polyreactivity”.

“QVQIVESGGGLVQAGRSLRLSCAASGSTFGSYAMGWYRQAPGKDRELVAAISASGGSTYYADSVKGRFTISRDNAKHTVYLQMNSLKPEDTAVYYCATVYYSARYTYWGQGTQVTVSS”: the “polyreactivity (PSR sort gate)” value is “high polyreactivity”.

As for “QVQLVETGGGLVKAGGSLRLSCGASGFIFTYNAMGWYRQAPGKERELVAAISGSGGRTYYADSVKGRFTISRDNAKNTVYLQMNSLKPEDTAVYYWNRDPKSLSYGSRGFGYWGLGTQVTVSS”, the “polyreactivity (PSR sort gate)” value is “high polyreactivity”.

Regarding “QVQLVESGGGLVQAGGSLRLSCAASGSIFKYYAMGWYRQAPGKERELVAAINSGGDTYYADSVKGRFTISRDNAKNTVYLQMNSLKPEDTAVYYCAAYGYAGYAHRDMDYWGQGSQVTVSS”, the “polyreactivity (PSR sort gate)” value is on record as “low polyreactivity”.

As to “QVQLVESGGGLVQAGGSLRLSCAASGLTFAYYAMGWYRQPPGKERELVAAITSGDGTNYADSVKGRFTISRDNAKNTVYLQMNSLKPEDTAVYYCATDTWSPGYDYWGQGTQVTVSS”, the “polyreactivity (PSR sort gate)” value is “low polyreactivity”.

As for “QVQLVESGGGLDQAGGSLRLSCAASGSTFYYNTMGWYRQAPGKERELVAAISWRGVSTYYADSVKGRFTISRDNAKNTVYLQMNSLKPEDTAVYYCNAVHHYPEHIGGGYWGQGTQVTVSS”, the “polyreactivity (PSR sort gate)” value is recorded as “low polyreactivity”.

Take “QVQLQESGGLVQAGGSLRMSCAASGSISGRNVMGWYRQAPGKEREFVASITDGSSTNYADSVKGRFTISRDNAKNTLFLQMNSLKPKDTAVYYCAAYAQRGKSFGYWGRGTQVTVSS”: the “polyreactivity (PSR sort gate)” value is “low polyreactivity”.

“QVHLVESGGGLVQAGGSLRLSCAASGSTFGTNAMGWYRQAPGKERELVARINSSASTTYADSVKGRFTISRDNAKNTVYLQMNSLKPEDTAVYYCAKSSLNIYDYWGQGTQVTVSS”: the “polyreactivity (PSR sort gate)” value is listed as “high polyreactivity”.

For “QVQLVESGGGLVQAGGSLPLSCAASGSTFDRNVMGWYRQAPGKERELVAAISRVSSTNYADSVKGRFTISRDNAKNTVNLQMNSLKPEDTAVYSCAADGAGSIMNYWGQGTQVTVSS”, the “polyreactivity (PSR sort gate)” value was “low polyreactivity”.

With “QVQLVESGGGLVQAGGSLRLSCAASGSTFSFNDMGGYRPAPGKERELVADISWSGDTTYADSVKGRFTISRDNAKNTVYLQMNSLIPEDSAVYYCNAEGFSISFYGNWVVQWEFDYWGQGTQVTVSS”, the “polyreactivity (PSR sort gate)” value is “high polyreactivity”.

For “QVQLVESGGGLVQAGGRLRLSCAASGSTCGPYTLGWYRQAPGTEREVVATISSGGSTYYADSVKWRFTISRDNAKNTVYLQMNSLKPEDTAVYFCNKDFFYLRTWRSVYEFEYWGQGTQVTVSS”, the “polyreactivity (PSR sort gate)” value is given as “low polyreactivity”.

As to “QVQLVESGGGLVQAGGSLRLSCAASGRIFRVYAMGWYRQAPGKERELVAAISGRGGSTTYADSVKGRFTISRDNAKNTVYLLMNSLKPEDTAVYYCAAGYRVDYWGQGTQVTVSS”, the “polyreactivity (PSR sort gate)” value is recorded as “low polyreactivity”.

Regarding “QVQLVESGGGLVQAGGSLRLSCAASGSTLYVYTMGWYRQAPGKERELVATINTSGSRTYYADSLKGRFTISRDIAKNTVYLQMNSLKPEDTAVYYCNARSSRWFYGYNYWGQGTQVTVSS”, the “polyreactivity (PSR sort gate)” value was “high polyreactivity”.
